What was measured:
[1] = biological target: wild type Arabidopsis AHAS large subunit protein (pAC774) (UniProt P17597)
[2] = biological target: herbicide-resistant mutant (Met124His) Arabidopsis AHAS large subunit protein (UniProt P17597)

Arabidopsis AHAS small subunit protein expressed from plasmid F1, sequence (chain, as listed by the source): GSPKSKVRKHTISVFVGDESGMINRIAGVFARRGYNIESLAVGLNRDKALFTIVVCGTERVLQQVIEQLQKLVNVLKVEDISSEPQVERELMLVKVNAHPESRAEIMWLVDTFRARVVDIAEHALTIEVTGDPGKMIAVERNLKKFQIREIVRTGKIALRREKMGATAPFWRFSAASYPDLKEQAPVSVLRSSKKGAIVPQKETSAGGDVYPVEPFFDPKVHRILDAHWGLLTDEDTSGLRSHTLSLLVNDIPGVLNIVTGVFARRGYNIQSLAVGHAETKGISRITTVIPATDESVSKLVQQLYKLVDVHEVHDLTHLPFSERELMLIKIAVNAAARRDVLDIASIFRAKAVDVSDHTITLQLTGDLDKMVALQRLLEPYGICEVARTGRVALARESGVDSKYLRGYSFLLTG

Arabidopsis AHAS small subunit protein expressed from plasmid F1
AHAS enzymatic activity of the large subunit in vitro, with increasing amounts of small subunit [1]: small subunit protein enhances the level of enzymatic activity of the catalytic large subunit
AHAS enzymatic activity of the mutant large subunit in vitro, in the presence of small subunit [2]: the enzymatic activity of a herbicide-resistant form of the large subunit is also enhanced
